Source: patent US7396682B2, “Method for cell adhesion and wound healing” (Regen Biotech, Inc., priority 2000, dated 2008)
“Also recorded” adds a separate entry of the source.

Tests used:
[1] = test system: HCE cells; experiment: Divalent cation sensitivity of βig-h3-mediated adhesion; assay type: cell-based, human; conditions: cells incubated 30 min with divalent cations in HBS
Protocol: To analyze the divalent cation sensitivity of βig-h3-mediated adhesion, cells were suspended in HEPES-buffered saline (HBS) (150 mM NaCl, 25 mM HEPES, 2 mM EDTA, pH 7.4) at a density of 2×10^5 cells/ml and incubated at 37° C. for 30 min. Then, they were washed twice in HBS and resuspended in the same buffer. Aliquots of cells (50 μl) were then added to the microculture plate wells and incubated for 30 min at 37° C. in a humidified atmosphere of 5% CO2 with 50 μl aliquots of HBS containing divalent cations (MnCl2, MgCl2 or CaCl2) at a concentration twice as large as the final concentration. Subsequently, they were plated on ligand-coated dishes to perform the adhesion assay.

[2] = test system: Human corneal epithelial (HCE) cells; experiment: HCE cell adhesion and spreading assay on protein-coated plates; assay type: cell-based
Protocol: Human corneal epithelial (HCE) cells used in this assay were cultured in DMEM ([…], Gibco BRL) supplemented with 15% fetal bovine serum, Gentamicin (40 μg/ml), insulin (5 μg/ml), cholera toxin (0.1 μg/ml) and human epidermal growth factor (hEGF) at 37° C. in 5% CO2.
The cell adhesion assay was performed as follows. First, the recombinant βig-h3 proteins or other extracellular matrix proteins were let to adhere to the bottoms of 96-well microculture plates (Falcon) by incubation at 37° C. for 1 hour and blocked with PBS containing 0.2% BSA. The coated extracellular matrix proteins were human plasma vitronectin (Promega), purified human plasma fibronectin (pFN), chicken collagen types I and II (Chemicon International Inc.), bovine collagen types IV and VI (Chemicon), mouse laminin (Chemicon), and bovine serum albumin (BSA) (Sigma). Cells were trypsinized and suspended in the culture media at a density of 2×10^5 cells/ml. 0.1 ml of the cell suspension was added to each well of the plates coated with the recombinant proteins.
Following incubation at 37° C. for 1 hour, unattached cells were removed by rinsing with PBS. Attached cells were incubated for 1 hour at 37° C. in 50 mM citrate buffer, pH 5.0, containing 3.75 mM p-nitrophenol-N-acetyl 1-β-D-glycosaminide as a hexosaminidase substrate and 0.25% Triton X-100, followed by the addition of 50 mM glycine buffer, pH 10.4, containing 5 mM EDTA to block the enzyme activity. A measurement was made of absorbance at 405 nm in a Multiskan MCC/340 microplate reader.
To determine cell area as an index for cell adhesion activity, 4×10^4 cells were applied to substrates in 48-well culture plates. The attached cells were fixed weith 8% glutaraldehyde (Sigma) and then stained with 0.25% Crystal Violet (Sigma) in 20% methanol. Measurement of cell areas was performed by Image-Pro plus software (Media Cybernetics). Experiments were repeated in triplicate with 200 or 300 measurements per site for each experiment. Data is reported as the mean area at specific time points±standard error of mean.

[3] = test system: dermal whole layer wounds on the backs of rats; experiment: Wound healing with ointment bases on dermal whole layer wounds (2 cm) of rats; assay type: in vivo, rat; set-up: key to Formation grade of collagenous fibers at wound: 0: negative; 1+: insignificant; 2+: scatteringly formed; 3+: very dense; key to Re-ephithelialization of Wound (grade): 0: zero was set for the formation of no epithelial layers; 1+ for initiation of epithelialization; 2+ for incomplete epithelial layer structure; 3+ for complete epithelial layer structure; conditions: for wound area: ointment 100 μg/ml, 1 g per day, mean
Protocol: To compare wound healing activity between the recombinant βig-h3 protein His-β-b, which contains all of the four fas-1 domains, like native βig-h3 protein, and the recombinant βig-h3 protein βigh3-D-IV, which contains the 4th domain alone, ointment bases comprising the recombinant proteins were tested as follows.
Four dermal whole layer wounds, each 2 cm in diameter, were made on the backs of rats and divided into test groups 1-A, 1-B, 1-C and 1-D according to the ointment applied thereto.
1-A: coated at a dose of 1 gm per day with an ointment base combined with no materials.
1-B: coated at a dose of 1 gm per day with an ointment in which fibronectin was combined at a concentration of 100 μg/ml with a base.
1-C: coated at a dose of 1 g per day with an ointment in which Hisβ-b protein was combined at a concentration of 100 μg/ml with a base.
1-D: coated at a dose of 1 g per day with an ointment in which βigh3-D-IV protein was combined at a concentration of 100 μg/ml with a base.
The backs of etherized rats were shaved, followed by sterilizing the shaved region with betadin solution. In test group 1, the back of each rat was cut by use of a No. 15 surgical blade to form four circular wounds with a diameter of 2 cm penetrating the whole dermal layers. Ointments for test groups 1-A, 1-B, 1-C and 1-D were applied at an amount of about 1 g to the wounds which were then covered with a synthetic dressing (Tegaderm® 3M) and lightly bandaged. Application of ointments was performed once every day.
With a base of an aqueous material (SamA base), each of the ointments contained, per 1 g, spermaceti 38 mg, stearyl alcohol 116 mg, polyethylglycol 38 mg, conc. glycerin 192 mg, ethanol 23 mg, […], ethyl paraoxybenzoate 0.87 mg, butyl paraoxybenzoate 0.12 mg, and purified water.
First, morphologies of wounds were observed. The same scale was positioned near each wound and pictures were taken at the same distance from each wound. Pictures were scanned in a computer and used to measure areas of the wounds with the aid of NIH image analysis system (Bio-Optics). To take the pictures, the muscle was completely relaxed by etherizing the rats. Measurements were performed once every other day until the 22nd day. For comparing test groups, the measured values were analyzed according to ANOVA test and Scheffer's test.
Histological analysis was conducted under an optical microscope. Biopsies of wound sites were taken at days 3, 7, 10, 14 and 20, and fixed in 10% formalin and solidified with paraffin. 6 μm slices of the samples were dyed with hematoxylin-eosin (H&E) and Masson's trichrome before observation under a microscope. Wound healing effects according to time of each test material were evaluated through re-epithelialization and formation of collagenous fibers. In the case of re-epithelialization, epithelial formation was semi-quantified in such a way that zero was set for the formation of no epithelial layers, 1+ for initiation of epithelialization, 2+ for incomplete epithelial layer structure, and 3+ for complete epithelial layer structure. Regarding comparison among test groups and differences according to time within each group, measured values were statistically analyzed using ANOVA test and Scheffe's test. As for collagenous fiber formation, it was graded as 1+ for insignificant formation of collagenous fibers as observed with trichrome dye, 2+ for scatteringly spaced collagenous fibers, and 3+ for dense collagenous fibers.

[4] = Expression form and non-denaturing gel electrophoresis of recombinant proteins; assay type: physicochemical; conditions: electrophoresis using non-denaturing gel
Protocol: The recombinant proteins containing at least one 4th domain, such as βig3-D-IV, 2X, 3X and 4X were prepared as follows. A DNA fragment encoding to amino acid 498-637 corresponding the 4th domain was obtained by PCR and the PCR products were blunt-ended by Klenow enzyme. This blunt-ended cDNA fragment was inserted to the EcoRV site of the pβig-h3 D-IV, which contained the 4th domain of βig-h3, and the resulting expression vector was named pβI-h3 D-IV 2X. The insert of the pβig-h3 D-IV 2X was excised by digestion with EcoRV and XhoI and blunt-ended by treatment with Klenow, followed by inserting the blunt-ended fragment into EcoRV sites of pβig-h3 D-IV and pβig-h3 D-IV 2X. The resulting expression vectors were named pβig-h3 D-IV 3X and pβig-h3 D-IV 4X. Expression of all recombinant proteins was induced for 3 hours in the presence of 1 mM IPTG and isolated by use of Ni-NTA resin (Qiagen).

[5] = test system: HCE cells; experiment: Inhibition assay of HCE cell adhesion using matrix peptides and reagents; assay type: cell-based, human; conditions: HCE cells preincubated 30 min with reagent
Protocol: In order to identify cell surface receptors involved in the cell adhesion activity of βig-h3 protein, an inhibition assay was performed using various reagents.
Initially, plastic culture dishes were coated with 10 μg/ml fibronectin, βigh3-WT or βigh3-ΔRGD. HCE cells were preincubated for 30 min in media containing 5 mM EDTA, 100 μg/ml βigh3-WT, 100 μg/ml βigh3-ΔRGD, 1 mM RGD, 1 mM RGE or 100 μg/ml fibronectin, or none of them, and then assayed for cell adhesion as in Example 1.

[6] = test system: K562 cells; experiment: K562 cell adhesion to coated proteins (hexosaminidase analysis); assay type: cell-based; conditions: 1 hour
Protocol: For another control experiment, K562 cells, known to express α5, but not α3 integrin, were used. K562 cells were inoculated onto plates coated with βigh3-WT, fibronectin, laminin, or type I collagen and incubated for 1 hour, followed by the hexosaminidase analysis.

[Cl][Mn][Cl] [Mn^2+, MnCl2]
promotion of cell adhesion to βig-h3 by divalent cations [1]: strongly promoted

[Ca+2].[Cl-].[Cl-] [Ca^2+, CaCl2]
promotion of cell adhesion to βig-h3 by divalent cations [1]: only marginally

B1: βig-h3 D-IV: recombinant polypeptide, 4th fas-1 domain of βig-h3, amino acids 498-637 (SEQ ID NO:26) (protein)
chain: LTPPMGTVMDVLKGDNRFSMLVAAIQSAGLTETLNREGVYTVFAPTNEAFRALPPRERSRLLGDAKELANILKYHIGDEILVSGGIGALVRLKSLQGDKLEVSLKNNVVSVNKEPVAEPDIMATNGVVHVITNVLQPPAN
modifications: left off: small tags and cut ends
HCE cell adhesion activity ([2]; HCE cells on coated recombinant protein): equally active compared to the wild type βig-h3; also recorded: high cell attachment activity | wound area ([3]; Day 0): 3.15 | wound area ([3]; Day 2): 2.62 cm² | Formation grade of collagenous fibers at wound ([3]; Day 3): 1+ | Re-ephithelialization of Wound (grade) ([3]; Day 3): 0 | wound area ([3]; Day 4): 2.37 | wound area ([3]; Day 6): 1.98 | Re-ephithelialization of Wound (grade) ([3]; Day 7): 0 | Formation grade of collagenous fibers at wound ([3]; Day 7, listed as 1-D): +1 | Formation grade of collagenous fibers at wound ([3]; Day 7, listed as βigD-IV): 1+ | wound area ([3]; Day 8): 1.51 cm² | Formation grade of collagenous fibers at wound ([3]; Day 10): 2+ | Re-ephithelialization of Wound (grade) ([3]; Day 10): 1+ | wound area ([3]; Day 10): 0.98 cm² | wound area ([3]; Day 12): 0.44 | Formation grade of collagenous fibers at wound ([3]; Day 14): 3+ | Re-ephithelialization of Wound (grade) ([3]; Day 14): 2+ | wound area ([3]; Day 14): 0.22 | wound area ([3]; Day 16): 0.20 | wound area ([3]; Day 18): 0.18 | Formation grade of collagenous fibers at wound ([3]; Day 20): 3+ | Re-ephithelialization of Wound (grade) ([3]; Day 20): 3+ | wound area ([3]; Day 20): 0.13 | wound area ([3]; Day 22): 0.06 | completion of re-epithelialization ([3]; optical microscope): 20 days | polymer formation [4]: did not form polymers

B2: βigh3-WT: wild-type human recombinant βig-h3 protein (SEQ ID NO: 22) (protein, UniProt Q15582 24-683, looked up)
Transforming growth …: GPAKSPYQLVLQHSRLRGRQHGPNVCAVQKVIGTNRKYFTNCKQWYQRKICGKSTVISYECCPGYEKVPGEKGCPAALPLSNLYETLGVVGSTTTQLYTDRTEKLRPEMEGPGSFTIFAPSNEAWASLPAEVLDSLVSNVNIELLNALRYHMVGRRVLTDELKHGMTLTSMYQNSNIQIHHYPNGIVTVNCARLLKADHHATNGVVHLIDKVISTITNNIQQIIEIEDTFETLRAAVAASGLNTMLEGNGQYTLLAPTNEAFEKIPSETLNRILGDPEALRDLLNNHILKSAMCAEAIVAGLSVETLEGTTLEVGCSGDMLTINGKAIISNKDILATNGVIHYIDELLIPDSAKTLFELAAESDVSTAIDLFRQAGLGNHLSGSERLTLLAPLNSVFKDGTPPIDAHTRNLLRNHIIKDQLASKYLYHGQTLETLGGKKLRVFVYRNSLCIENSCIAAHDKRGRYGTLFTMDRVLTPPMGTVMDVLKGDNRFSMLVAAIQSAGLTETLNREGVYTVFAPTNEAFRALPPRERSRLLGDAKELANILKYHIGDEILVSGGIGALVRLKSLQGDKLEVSLKNNVVSVNKEPVAEPDIMATNGVVHVITNVLQPPANRPQERGDELADSALEIFKQASAFSRASQRSVRLAPVYQKLLERMKH
cell adhesion and spreading activity (numbers and surface areas of attached HCE cells) ([2]; HCE cells on coated protein, 1 hour at 37° C.): clearly greater than those attached to albumin | inhibition of cell adhesion to fibronectin ([5]; dishes coated with 10 μg/ml fibronectin): partially inhibited | inhibition of cell adhesion to βig-h3 ([5]; dishes coated with 10 μg/ml βig-h3): significantly inhibited | adhesion of K562 cells to coated protein [6]: did not adhere
